System: RcsB
Assay: EMSA

| Substance | K half [ng per 16 µL] |
| --- | --- |
| hmsC (hmsCDE/hmsD) promoter, wild-type RcsAAB box | 800 |
| lcrQ promoter | > 2000 |

Source: PMC4325325
